Measured values as given in the supplement of paper PMC12764529.
± gives the half width of the 95% confidence interval.

experiment: folding stability dG unfold (combined trypsin and chymotrypsin); higher = more stable
Protocol: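 Folding stability of de novo designed mini-proteins (<80 aa, no Cys; designed by TrROS, TrMRF, ProteinMPNN and the joint model) was measured by cDNA display proteolysis with trypsin and chymotrypsin. Each protease was used at 11 concentrations in a threefold dilution series plus a no-protease condition. K50 was inferred by Bayesian fitting of sequencing counts, and dG unfold was derived against a sequence-predicted unfolded-state K50 (Tsuboyama et al. method). Sequences shown include variable-length N-terminal GS-type padding (SAGGSAGG...) inside a display construct carrying a PA tag. Rows were kept only if the AF2 dimer inter-PAE was >15, to exclude likely homo-oligomers.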

“EPNYLVQIEIEPRMYQKDEDGKPLKPQPMKQPFFGPADDPEQVKDNLRDNFGPEVEIDEVMPLEDINEGQFS [r1_493_TrROS]” and “NWVVWAKLTNPEEGERKTYEVPVPPGEEPTEEEILDQAKDMLGRPKEDLRKNVEIEPYPENGWAEIEIRIRS [r1_285_TrROS]” cannot be ordered by “folding stability dG unfold” value: < -1 kcal/mol for the first, < -1 kcal/mol for the second.

“PDDPEEQREQMPPIPPEWAEELARKFAEKLGDEEVTEVEVDDITPNGYIEVEIENPDGGEVKIEIPMDDIMS [r1_435_TrROS]” and “SAAEWLKEEGLKVKDVEVTKPRENPNGKREMEYRIKVRLPNKKVEVPIRMPSDSPETALNMAHNILRELSAG [r14_726_TrROS]” cannot be ordered by “folding stability dG unfold” value: < -1 kcal/mol for the first, < -1 kcal/mol for the second.

“SAELVLASVEKKGDEVIAVTAFPDGLFVKVKTKDGKIFAAPLPAENIGPQVEALKKAFPGVEVEPFLAESAG [r14_528_TrMRF]” and “SAGGANAKDVKRDGNNIQITFDGQILFKIQPPKPVPPVRVRHPDGKEHHAPLEDLKKENPDNWEIEPPSAGG [r13_802_TrROS]” cannot be ordered by “folding stability dG unfold” value: < -1 kcal/mol for the first, < -1 kcal/mol for the second.

“SAGGASVPVEPRLDASGRERVRATLEIRPTLPNGTRTSRAVPVEFASRAELRAFIAARAPTADAVLLSAGGS [r16_652_JUSTAS]” and “SAGGDDFRVERFHPGEPREPREIDGDADDLLEELPPNDSYVHIEFKDDGGKKRIQMDTPEDLKNFIRDSAGG [r13_299_TrROS]” cannot be ordered by “folding stability dG unfold” value: < -1 kcal/mol for the first, < -1 kcal/mol for the second.

“SAGGDKKKKEVEFRFPGMPFRVSIQVDPDEGKIPIEIYNPDNGQSLDDLKSNPAMQQMVREAANALKSAGGS [r16_96_TrROS]” and “SAGGDPDWKPIEFNLQRTVKPGDPEQIEEKAREFFEMFGIKSVTDVERERNPEGQQTVQASVKIRFPDSAGG [r13_222_TrROS]” cannot be ordered by “folding stability dG unfold” value: < -1 kcal/mol for the first, < -1 kcal/mol for the second.

“SAGGDWIPFRIKQYDPKDGKPKREWPIQYNPEDGMMQIRPPDGKKHEFPMPMQEILENLPPGFEIEPSAGGS [r16_543_TrROS]” and “SAGGEKVPLKIRDPDNGNPHEFDKIESIDSVEMQKPPDNRQQYSIRFPGDGRPIMIDDPEDIEEALKSAGGS [r8_206_TrROS]” cannot be ordered by “folding stability dG unfold” value: < -1 kcal/mol for the first, < -1 kcal/mol for the second.

“SAGGGMNEPVPKVTVTTTSVSVEPPPDLPGIAKVYTPTVITTDDEAVAEAIAEEIAAQPDVEYEDTGASAGG [r13_606_JUSTAS]” and “SAGGGPEVVETVETPATETEVSRLPNGELLVTTTTQVTTFVRVGDELRRERVETVTTTEIVSPEELGSAGGS [r16_109_JUSTAS]” cannot be ordered by “folding stability dG unfold” value: < -1 kcal/mol for the first, < -1 kcal/mol for the second.

“SAGGGSIEDSNLSEEEIKEILSKLPEPVTVTVKRKEVKKVTYFENGKVKEEKIVEKEKTEVYYFPPKKSAGG [r13_632_JUSTAS]” and “SAGGGSKIIEVPVIVEPDEDLGKVAEEIAKKIFPENEKVIVKVEKFENSYRIEIFNPEDGKPIIEGEGSAGG [r13_724_TrMRF]” cannot be ordered by “folding stability dG unfold” value: < -1 kcal/mol for the first, < -1 kcal/mol for the second.

First: SAGGGVSYSFSSSGSGSTVTIYIPGSGKTLKRKVNPNDTITDIPSSAKPYKVVKEVNDEKPVEEELGSAGGS [r8_487_JUSTAS]
Second: SAGGIMFDSPEEAEELADNGRIKPVNRGKQKHKDNGKEREHEMYMVKIKDPEDNKPVQVMIPADQIRSAGGS [r16_271_TrROS]
The “folding stability dG unfold” value of the first is higher: -0.855 ± 0.72 kcal/mol for the first, < -1 kcal/mol for the second.

“SAGGKIGQEVDPGEPITIPIVKRDGDNPKKEKINFRLPPGMRIRPKDDNIMIRFPGNGQEQTIPLKDLSAGG [r13_275_TrROS]” and “SAGGKNPEENDPEYQKPPKIPSRTIPFPAEQALAWAKELPGFDNIMVEAGGKWVEIDLDDGKIEPYGSAGGS [r16_214_TrROS]” cannot be ordered by “folding stability dG unfold” value: < -1 kcal/mol for the first, < -1 kcal/mol for the second.

“SAGGKPPKIKIKVEHEPYPGNGRYYMEVELEDPDDGKPIEIPFRGDSPEEAEENAKEIAREIAKELKSAGGS [r8_480_TrROS]” and “SAGGLPSPDAVVEEESLELSFESSSEVVVTKKKTTKKVLPNGKVETETEEEEEVVKATKEEIEKLKKESAGG [r13_544_JUSTAS]” cannot be ordered by “folding stability dG unfold” value: < -1 kcal/mol for the first, < -1 kcal/mol for the second.

“SAGGLTITVTPSVSENEVVVPGTGKPRFPEPRETYTVTVTPAPDVSLEEVAAEIREKFPGRGYTLTPSAGGS [r8_30_JUSTAS]” and “SAGGMDDVIRKALEEATPPLEVKEELILTTEPTPRGTVITKTTRPIIKSPEPGTFVPEPVEVVPAALLSAGG [r19_11_JUSTAS]” cannot be ordered by “folding stability dG unfold” value: < -1 kcal/mol for the first, < -1 kcal/mol for the second.

“SAGGMDPAEAREIAKEIMKKFEENGRPYYAKITIRPDPKIQDIDIMPPGEPLEPRADPGQRTIMFRFPSAGG [r13_693_TrROS]” and “SAGGMELKVVTLEATSGRREDAGLVPAALEEGARELALAHPELRILGADMEVEPLGEEYVARIPLVVGSAGG [r13_305_TrMRF]” cannot be ordered by “folding stability dG unfold” value: < -1 kcal/mol for the first, < -1 kcal/mol for the second.

“SAGGMITTEREVEVPPDELDEVIERLKAEVAAQPLEPAEDIKILEIEEKEEKAVIKYKVTAKVEGEKLLSAG [r5_575_JUSTAS]” and “SAGGMKAEIVNPNLSPEELKELILKAPEAKDVDIEVKKTSAKGAVSAKITTKSEKEAETIKKAVEEAVSAGG [r13_580_JUSTAS]” cannot be ordered by “folding stability dG unfold” value: < -1 kcal/mol for the first, < -1 kcal/mol for the second.

“SAGGMLRTVKTEKYSDGTVVEPVADAAGNVTYTIVKKRKKVFDGDKVYYSEPVTIFKNGVKVEEKNISSAGG [r13_1007_JUSTAS]” and “SAGGMNMYLRVEQYRKKPNGEPEKRELSIPFPPNEPVEEIADELQKDNPYIKVEIYSPGTGKQQTITISAGG [r13_663_TrROS]” cannot be ordered by “folding stability dG unfold” value: < -1 kcal/mol for the first, < -1 kcal/mol for the second.

“SAGGMPPSFVVEEEKTVEGTSTVTLRKITNPSSSEDMLSEIVTPPDGSVTLILKKDNIIEVIPSSELSAGGS [r16_49_JUSTAS]” and “SAGGMPVVTPTTSTEPLPGGRAATVTTYTPPDGLVRQEVTLPPERRLFRLIDPATGEVVEKEEAELESAGGS [r16_735_JUSTAS]” cannot be ordered by “folding stability dG unfold” value: < -1 kcal/mol for the first, < -1 kcal/mol for the second.

“SAGGMRIPLKQIKDVNHQPPPGNGYPMVTVKVRDGGKPHTHTIPNNMNWEEAKRMVEEALDEGPIEIESAGG [r13_225_TrROS]” and “SAGGMSPDATITENLVTDSEEEALAKLLADPSVAEVKPLGVKPDKTKEGKPVIIVPVELRIPADGVRLSAGG [r19_221_JUSTAS]” cannot be ordered by “folding stability dG unfold” value: < -1 kcal/mol for the first, < -1 kcal/mol for the second.

“SAGGMTIDSPEEAVQAIEDNPDKPLTLLVPTDPSTGSVPEEVVQAFAEPGFPISRDPAGYWTITYPPSAGGS [r16_335_JUSTAS]” and “SAGGMTSTFRFSDSRGRLSVEKITPETGKVTVVEQGPSSPRRSTLNASPEEAFQQLKDANDFPASRLESAGG [r13_141_JUSTAS]” cannot be ordered by “folding stability dG unfold” value: < -1 kcal/mol for the first, < -1 kcal/mol for the second.

“SAGGMVLSDVLPDGTVKPVSEEKIKEIVEKIEKEINAKIEVKIEKKWEGDKWVTTIPVTLIGLSPKLISAGG [r13_790_JUSTAS]” and “SAGGMVVEEEPTKTVVEEVVPLPGGSPVRRITEEVLLPDGSVASRTTVFRPPGEREEETSLDPVPPEASAGG [r13_21_JUSTAS]” cannot be ordered by “folding stability dG unfold” value: < -1 kcal/mol for the first, < -1 kcal/mol for the second.

“SAGGNKTREREIPIPPGDSPDQAVDRVLEELEKHPDNNNVNINFRHPNGMPIKIRVTPNGKITEVEPYSAGG [r13_690_TrROS]” and “SAGGPGVEIVEVDPDGTLRVRAYDPATREPIAEAEIRIGALPVPPPVPGVPVLLADGELREVELPAALSAGG [r13_9_TrMRF]” cannot be ordered by “folding stability dG unfold” value: < -1 kcal/mol for the first, < -1 kcal/mol for the second.

“SAGGPGYWRIKIYPKDTGKPHEFPIPLDQIRKVDPKNNKIEISFPNGPTIKIPDPEDIKAVQIEPWPSAGGS [r8_111_TrROS]” and “SAGGPKIEVDVKHQRTPDGMYRMRVTAVVPGNGRKIKITMPMPPDDPSPMPKMAKSIAKELANDPGLKSAGG [r13_968_TrROS]” cannot be ordered by “folding stability dG unfold” value: < -1 kcal/mol for the first, < -1 kcal/mol for the second.

“SAGGPKIHIDRGPDYIRVKINGPDGKPIAPSTIPYEDPDNGEEEEVKIPIEELAQESGFPIEIEPYDSAGGS [r16_778_TrROS]” and “SAGGPMPPGQPVNIHIEIENPNGNERTIPVPGPVGDPDWFKEIAEKLKEEGWKIKKIHPGNGVIEIKSAGGS [r8_497_TrROS]” cannot be ordered by “folding stability dG unfold” value: < -1 kcal/mol for the first, < -1 kcal/mol for the second.

“SAGGPMVTWRIKFPGKKIEVMWNPDQMNVNIYDPDKPKEVPIPMPPGEPPTADDILDELKKDGFKIEPSAGG [r13_687_TrROS]” and “SAGGPMWQVRLRDPDGKKRTINIQQTNGNMYVRIQDKDGEPVKEHPVDSAEEALDKLEDHGYKVEVYPSAGG [r13_315_TrROS]” cannot be ordered by “folding stability dG unfold” value: < -1 kcal/mol for the first, < -1 kcal/mol for the second.

“SAGGPPIMLRIKHPGPDQREKIKEIAQDYPIEPVNPTPGEHEFRFNGPEQVNRLQDIAEKNGWKIEISAGGS [r16_88_TrROS]” and “SAGGPPKWKEVEFRMPPEDLKPDDIVDELQDDGIEIYNGDKPIDPGKSVDDLMQDNPNMPFTIKVWDSAGGS [r8_38_TrROS]” cannot be ordered by “folding stability dG unfold” value: < -1 kcal/mol for the first, < -1 kcal/mol for the second.

“SAGGPSMSLSTRTVTLPVDPDTTEEEIKEALNREVKLPSPSTAIETPVEVEISPGPPVATVTLQVKILSSAG [r5_939_JUSTAS]” and “SAGGQKITIDNVTPGMIRIRVPNGNEFEFPEIQKELQEHGNNQPPTADQIAEWLRKRNFPIKDIEISDSAGG [r13_610_TrROS]” cannot be ordered by “folding stability dG unfold” value: < -1 kcal/mol for the first, < -1 kcal/mol for the second.

“SAGGRPYKVKIKNPGSGKPYEMPIVDVHESDDNFYIMIQNPNGKNREAPLNNIDKAEVDEEGGTITLPSAGG [r13_211_TrROS]” and “SAGGSADMPMLPIEEIIDQLKEAKEANPNKKRTIEIPYPDGMPMQIEIDNDGKTKIEHPDGQWITISAGGSA [r15_73_TrROS]” cannot be ordered by “folding stability dG unfold” value: < -1 kcal/mol for the first, < -1 kcal/mol for the second.

For “SAGGSAGGIKPGQRVRVKLEQWSPNGEPQKHTFPIKNIPPGFKPGQELTFPGPGHKWRIDEITRSAGGSAGG [r6_561_TrROS]”, the “folding stability dG unfold” value was < -1 kcal/mol.
